Measurements from patent US20200164069A1 (BOSTON PHARMACEUTICALS, published 2020).
Blank lines part the entries; values can stand above or below the binder they belong to.

Key:
recombinant human IL-21 [1] = target: T1, recombinant human IL-21 (human, UniProt Q9HBE4 30-162, limits assumed); assay: cell-based or functional assay
[2] = target: T2, recombinant cynomolgus monkey IL-21 (cynomolgus monkey (Macaca fascicularis), UniProt Q9HBE4 30-162 (human entry), limits assumed); assay: cell-based or functional assay
T2 sequence (Q9HBE4 other isoform, or with tags, fused parts or gaps limits assumed): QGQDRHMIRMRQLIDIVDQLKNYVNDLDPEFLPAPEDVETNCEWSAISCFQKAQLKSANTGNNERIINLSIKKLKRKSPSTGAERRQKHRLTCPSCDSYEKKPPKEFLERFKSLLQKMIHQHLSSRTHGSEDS

[3] = target: T3, IL-21 (species not stated in the assay) (Homo sapiens (Human), UniProt Q9HBE4 25-162, Biotinylated in the competition ELISA of paragraph 259 (sites not given); unlabelled in the other results.); assay: cell-based or functional assay
T3 sequence (Q9HBE4 25-162 limits assumed): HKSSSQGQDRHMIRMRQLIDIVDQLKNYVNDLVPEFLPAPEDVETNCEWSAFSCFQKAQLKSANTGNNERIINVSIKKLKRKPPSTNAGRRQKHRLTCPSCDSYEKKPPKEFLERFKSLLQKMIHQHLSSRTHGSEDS

IL-15 = IL-15 (UniProt P40933 49-162); assay: ELISA on plate-coated cytokine (2 µg/ml)
IL-15, sequence (P40933 49-162 limits assumed): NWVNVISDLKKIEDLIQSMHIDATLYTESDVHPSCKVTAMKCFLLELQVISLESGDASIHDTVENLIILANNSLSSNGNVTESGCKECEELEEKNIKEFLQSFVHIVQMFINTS
Description: (§1) ELISA was used to test cross reactivity of lead clones. Cytokines tested include 11-2, IL-4, IL-7, IL-9, and IL-15. Maxisorp ELISA plate (NUNC) was coated with 2 μg/ml of different cytokines in PBS at 4° C. overnight. The plate was then blocked with 3% BSA in PBST (PBS+0.1% Tween) at room temperature for one hour. Purified lead clone IgGs were serially diluted in PBST+3% BSA and the mixture was then added to each ELISA plate well and further incubated at room temperature for half an hour. After washing, secondary antibody-HRP was added to each well for 1 hour. Wells were washed first with PBST and then with PBS and the TMB solution from Pierce was added to detect the secondary antibody. After 5′ the reaction was stopped by the addition of 1N sulfuric acid. The plates were then read in an ELISA reader at 450 nm to detect the binding.

IL-4 = target: T4, IL-4 (UniProt P05112 25-153); assay: ELISA on plate-coated cytokine (2 µg/ml)
T4 sequence (looked up): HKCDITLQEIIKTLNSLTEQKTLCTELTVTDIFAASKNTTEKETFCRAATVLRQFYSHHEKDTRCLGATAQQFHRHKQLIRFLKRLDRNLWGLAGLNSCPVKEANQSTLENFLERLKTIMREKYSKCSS
Description: as §1

IL-2 = IL-2 (UniProt P60568 21-153); assay: ELISA on plate-coated cytokine (2 µg/ml)
IL-2, sequence (P60568 21-153 limits assumed): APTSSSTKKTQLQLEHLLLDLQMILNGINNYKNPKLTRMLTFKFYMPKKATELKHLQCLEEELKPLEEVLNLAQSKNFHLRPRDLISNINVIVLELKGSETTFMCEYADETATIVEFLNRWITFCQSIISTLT
Description: as §1

IL-7 = target: T5, IL-7 (UniProt P13232 26-177); assay: ELISA on plate-coated cytokine (2 µg/ml)
T5 sequence (looked up): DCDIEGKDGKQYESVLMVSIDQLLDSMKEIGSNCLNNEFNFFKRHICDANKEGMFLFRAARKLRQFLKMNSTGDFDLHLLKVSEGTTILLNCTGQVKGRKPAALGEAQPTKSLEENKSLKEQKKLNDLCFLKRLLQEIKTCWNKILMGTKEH
Description: as §1

recombinant human IL-21 [4] = target: T1, recombinant human IL-21; assay: KinExA 3000, solution-phase equilibrium, dual curve analysis
Description: (§2) The IL-21-coated Azlactone bead slurries were diluted to 30 mL with instrument buffer (PBS, pH 7.4, 0.02% NaN3) in a bead vial and affixed to the KinExA instrument. A user-defined timing program was used to sequentially transfer the IL-21/Azlactone beads to a capillary flow cell in the instrument, and individual sample mixtures were injected over the IL-21-coated beads. Unbound sample solution was removed by washing the beads with instrument buffer. A 1- or 2-μg/mL solution of the DyLight649-labeled, goat-anti-hulgG(H+L) secondary reagent (Thermo Scientific) was passed over the beads to detect receptor (K44VHa-N56Q) that remained bound to the IL-21-coated beads. […] The amount of fluorescence that remained associated with the beads was measured, and the signal was converted to percent free receptor (K44VHa-N56Q). […] Once the data had been collected for all samples in each series (500 fM and 50 pM K44VHa-N56Q), an isotherm was generated, which plotted the amount of free K44VHa-N56Q detected at each concentration of IL-21. The resulting 2 binding curves were then evaluated in a dual curve analysis using the instrument's evaluation software (KinExA Pro Software, v. 2.0.1.26, Sapidyne) from which individual KDS for each interaction were derived.
(§3) The binding of K44VHa-N56Q to human and cynomolgus monkey IL-21 was measured by KinExA. […]

[5] = target: T2, recombinant cynomolgus monkey IL-21; assay: as above
Description: as §2, §3

recombinant human IL-21 [6] = target: T1, recombinant human IL-21; assay: cell-based or functional assay; remark: listed apart in the source
[7] = target: T2, recombinant cynomolgus monkey IL-21; assay: cell-based or functional assay; remark: listed apart in the source
recombinant human IL-21 [8] = target: T1, recombinant human IL-21; assay: cell-based or functional assay; remark: listed apart in the source
[9] = target: T2, recombinant cynomolgus monkey IL-21; assay: cell-based or functional assay; remark: listed apart in the source
[10] = target: T3, IL-21 (species not stated in the assay); assay: method not stated
recombinant human IL-21 [11] = target: T1, recombinant human IL-21; assay: cell-based or functional assay; remark: listed apart in the source
[12] = target: T2, recombinant cynomolgus monkey IL-21; assay: cell-based or functional assay; remark: listed apart in the source
recombinant human IL-21 [13] = target: T1, recombinant human IL-21; assay: method not stated for this clone (Table 2, column Kd hu)

T1 sequence (Q9HBE4 30-162 limits assumed, form in doubt): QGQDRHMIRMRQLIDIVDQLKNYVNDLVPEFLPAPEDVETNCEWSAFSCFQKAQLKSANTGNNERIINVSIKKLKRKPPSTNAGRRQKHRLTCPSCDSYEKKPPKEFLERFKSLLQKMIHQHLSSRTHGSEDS

IC50 in PC differentiation assay (2 nM IL-21) (recombinant human IL-21 [1]): 777 pM
IC50 in PC differentiation assay (2 nM IL-21) [2]: 1060 pM
maximal inhibition in pSTAT3 assay [3]: 100%
binding result (IL-15): no binding
binding result (IL-4): no binding
binding result (IL-2): no binding
binding result (IL-7): no binding
Kd (recombinant human IL-21 [4]): 0.515 pM
Kd [5]: 0.352 pM
IC50 in NK-92 cell assay (IFNγ, 200 pM IL-21) (recombinant human IL-21 [6]): 92.7 pM
IC50 in NK-92 cell assay (IFNγ, 200 pM IL-21) [7]: 80.8 pM
IC50 in pSTAT3 assay (human PBMCs, 20 pM IL-21) (recombinant human IL-21 [8]): 17.2 pM
IC50 in pSTAT3 assay (human PBMCs, 20 pM IL-21) [9]: 19.3 pM
B1: K44VHa-N56Q (MEDI7169) (antibody, V domains shown)
VH: QVQLVQSGAEVKKPGASVKVSCKASGYTFTDYWMHWVRQAPGQGLEWMGTIDPSDQYTIYSQNFKGRVTMTRDTSTSTVYMELSSLRSEDTAVYYCARYGFAMDYWGQGTLVTVSS
VL: DIQLTQSPSSLSASVGDRVTITCRASQDISNFLNWYQQKPGKAVKLLIYYTSRLHSGVPSRFSGSGSGTDYTLTISSLQPEDFATYYCQQGHTLPRTFGGGTKVEIK

IC50 in PC differentiation assay (2 nM IL-21) (recombinant human IL-21 [1]): 47300 pM
IC50 in PC differentiation assay (2 nM IL-21) [2]: 74000 pM
Kd [10]: 10000 pM
inhibition of IgG production by human B cells (recombinant human IL-21 [11]): 97%
inhibition of IgG production by human B cells [12]: 79%
maximal inhibition in pSTAT3 assay [3]: 100%
binding result (IL-4): no binding
binding result (IL-2): no binding
binding result (IL-7): no binding
Kd (recombinant human IL-21 [13]): 9.99 pM
IC50 in NK-92 cell assay (IFNγ, 200 pM IL-21) (recombinant human IL-21 [6]): 462 pM
IC50 in NK-92 cell assay (IFNγ, 200 pM IL-21) [7]: 867 pM
IC50 in pSTAT3 assay (human PBMCs, 20 pM IL-21) (recombinant human IL-21 [8]): 21.7 pM
IC50 in pSTAT3 assay (human PBMCs, 20 pM IL-21) [9]: 83.2 pM
B2: murine monoclonal antibody 9F11 (antibody, V domains shown)
VH: EVELVESGGGLVQPGGSMKLSCAASGFTFSDAWMDWVRQSPEKGLEWVAEIRSEADNHPTYYAESVKGRFTISRDDSKSSVYLQMNSLRAEDSGIYYCTEYDYEGFVHWGQGTLVTVSA
VL: DIVLTQSPASLAVSLGQRATISCRASKSVSTYGYSYMHWYQQKPGQPPKLLIYLASNLESGVPARFSGSGSGTDFTLNIHPVEEEDAATYYCQHSRELPLTFGAGTKLELK
notes: also called 9F11.1
